Three proteins from article PMC8038987, “An unusual thioredoxin system in the facultative parasite Acanthamoeba castellanii” (Cellular and Molecular Life Sciences: CMLS, 2021) can be followed below.

Holding throughout (assay type): biochemical, Acanthamoeba castellanii
Substrate in data set [1]: NC(=O)C1=CN([C@@H]2O[C@H](COP(=O)(O)OP(=O)(O)OC[C@H]3O[C@@H](n4cnc5c(N)ncnc54)[C@H](OP(=O)(O)O)[C@@H]3O)[C@@H](O)[C@H]2O)C=CC1
Put plainly: GSH-dependent DTNB reduction, A412. The settings on record: 1 mM GSSG, 11 nM GR, 100 mM Tris pH 7.5. From the text:
GSH-dependent DTNB reduction, A412 on Ac GR

Substrate in data set [2]: C[S+]([O-])CCC(N)C(=O)O
Put plainly: coupled NADPH oxidation via TrxR-S and Trx-1, A340. Particulars: 610 nM MsrA, 1.9 µM Trx-1, Ac TrxR-S, 0.2 mM NADPH. From the text: coupled NADPH oxidation via TrxR-S and Trx-1, A340 on MsrA

Substrate in data set [3]: NC(=O)C1=CN([C@@H]2O[C@H](COP(=O)(O)OP(=O)(O)OC[C@H]3O[C@@H](n4cnc5c(N)ncnc54)[C@H](OP(=O)(O)O)[C@@H]3O)[C@@H](O)[C@H]2O)C=CC1
Put plainly: Trx-1-dependent DTNB reduction, A412. The settings on record: 10 µg/ml Trx-1, 1 mM DTNB, 1 µg/ml (31 nM) TrxR-S, 100 mM potassium phosphate pH 6.8, 21-23 °C. From the text:
Trx-1-dependent DTNB reduction, A412 on Ac TrxR-S

B1: Ac GR (Acanthamoeba castellanii str. Neff) (protein)
chain: MESAKSTYDFDLFVLGAGSGGVRASRISAKAGARVAIAEESRVGGTCVIRGCIPKKLLVYASHFSGDFEDSRNFGWSVDVKGFDWKKLIDNKDKEIDRLNGIYKNLLAGSGVKLIEGRATLVDAHTVKVGDATYTAENILVAVGSWPWVPTIPGIEHAITSNEALELQELPKHAIIVGAGYIACEFATIFSGCGAKVTQIFRKPYVLTGFDNDVQLAVMDEGKKQGINFMPSTQVTAIEKTDAGYVCQLDNGQTVTGDVVMYATGRVPNSANLGLENAGVKIDQQGAIVVDEWSRTSVPSIYAVGDITNRINLTPVALAEGHALADTLYNNLPRTADHTNVPSAVFTSPPVSCVGYTETQARQVYGEIDVYVSKFTPLRHTLSKRDEKTFMKLIVDRKTDRVVGAHMVGADAPEIIQGVAIAVKCGATKKQFDSTVGLHPSAAEEFVTMRTKRE
notes: full-length from cDNA, 454 aa, C-terminal 6xHis, expressed in Giardia lamblia WB C6, Ni-NTA; eluate also contained G. lamblia proteins
On to B1, for which the Km (commonly the substrate concentration at which the rate is half of its maximum) in data set [1] was 9 µM.

B2: MsrA (Acanthamoeba castellanii str. Neff) (protein)
chain: MTETATFGAGCFWGVEKFFRKEFGSALASTEVGYAGGDKSSPTYRQVCDGDTGHAEVVKLEFKKDAVDYASLVEFFFRIHDASTVDRQGNDVGTQYRSVIFYHTPEQKKVAEEVKDKVQKEHYPRTPIVTQIVPVGQYWSAEDYHQLYLEKNPSGYCNHRLRW
notes: full-length from cDNA, 163 aa, C-terminal 6xHis, pET-17b, E. coli BL21-AI, Ni-NTA
Regarding B2, in data set [2], the Michaelis-Menten constant (Km) worked out at 2590 µM; the Vmax (in general, the top rate of the reaction or transport when substrate is in excess) was determined as 500 nmol/min/mg; the catalytic constant (kcat) (as a rule, the maximal rate divided by the concentration of active sites) turned out to be 0.155 s⁻¹; the kcat/Km (commonly the second-order rate constant that governs catalysis at low substrate concentration) was found to be 59 M⁻¹ s⁻¹.

B3: Ac TrxR-S (Acanthamoeba castellanii str. Neff) (protein)
chain: MESKVHRMVIVGSGPAGHTAAIYAARANLEPVMYEGWMAGGVASGGQLTTTTDVENFPGFPEGVGGIDLTDNMRKQSERFGTVIIPKTITKADLSSRPFKLWVEGEEEGEPAAQAHSLIIATGATARRLAVPGEETFWQKGVSACAVCDGALPLFRNKPLAVVGGGDSACEEASWLSKFGSKVYLIHRRDELRASKIMAQRVLSNPKIEMVWNSAVEEIYGEKLVTGLKIKNVSTGDITDLPVSGLFWAIGHVPNTQFLNGQVETDAEGYIKTTPGSTVTSVEGVFAAGDVQDKRYRQAITAAGTGCMAALDAEHWLSAHL
notes: full-length from cDNA, 321 aa, C-terminal 6xHis, pET-17b, E. coli BL21-AI, Ni-NTA
Regarding B3, in data set [3], the Km was determined as 4 µM, the Vmax is 2.96 µmol/min/mg and the kcat was found to be 1.7 s⁻¹.
